Patent US20020164716A1 (GENETICS INSTITUTE, published 2002)
Substitutions are numbered along the chain they refer to.

B1: intracellular domain of the second TNF-R (TNF-R p75IC) (receptor, UniProt P20333 288-461, looked up)
chain: KKKPLCLQREAKVPHLPADKARGTQGPEQQHLLITAPSSSSSSLESSASALDRRAPTRNQPQAPGVEASGAGEARASTGSSDSSPGGHGTQVNVTCIVNVCSSSDHSSQCSSQASSTMGDTDSSPSESPKDEQVPFSKEECAFRSQLETPETLLGSTEEKPLPLGVPDAGMKPS
notes: domain: intracellular domain; also called TNF-R p75JC
B2: LexA-TNF-R1-DD fusion protein (death domain of the P55 type 1 TNF receptor) (receptor, UniProt P19438 355-442, looked up)
chain: DPATLYAVVENVPPLRWKEFVRRLGLSDHEIDRLELQNGRCLREAQYSMLATWRRRTPRREATLELLGRVLRDMDLLGCLEDIEEALC
notes: range 326-413; also called TNF-RDD; TNF-R death domain; not shown: LexA, bait fusion partner from plasmid pEG202
B3: TNF-R death domain mutant L351A (receptor, UniProt P19438 355-442, looked up)
chain: B2 chain with L26A
notes: range 326-413; Numbering as printed, see the note of m7; not shown: LexA, bait fusion partner from plasmid pEG202
B4: TNF-R death domain mutant W378A (receptor, UniProt P19438 355-442, looked up)
chain: B2 chain with W53A
notes: as for B3
B5: TNF-R1-DD expressed as a GST fusion protein (receptor)
chain: B2 chain
notes: range 326-413; Purified, bacterially expressed, held on glutathione beads; Numbering: see the note of m7; also called GST-TNF-R1-DD; GST/TNF-R1-DD; not shown: glutathione-S-transferase (GST) from a pGEX vector (Pharmacia)
B6: TNF-R death domain mutant F345A (receptor, UniProt P19438 355-442, looked up)
chain: B2 chain with F20A
notes: as for B3
B7: TNF-R death domain mutant I408A (receptor, UniProt P19438 355-442, looked up)
chain: B2 chain with I83A
notes: as for B3
B8: death domain of the fas antigen (FasDD) (receptor, UniProt P25445 230-314, looked up)
chain: SKYITTIAGVMTLSQVKGFVRKNGVNEAKIDEIKNDNVQDTAEQKVQLLRNWHQLHGKKEAYDTLIKDLKKANLCTLAEKIQTII
notes: domain: death domain
B9: entire intracellular domain of TNF-R (TNF-R p55IC) (receptor, UniProt P19438 233-455, looked up)
chain: MYRYQRWKSKLYSIVCGKSTPEKEGELEGTTTKPLAPNPSFSPTPGFTPTLGFSPVPSSTFTSSSTYTPGDCPNFAAPRREVAPPYQGADPILATALASDPIPNPLQKWEDSAHKPQSLDTDDPATLYAVVENVPPLRWKEFVRRLGLSDHEIDRLELQNGRCLREAQYSMLATWRRRTPRREATLELLGRVLRDMDLLGCLEDIEEALCGPAALPPAPSLLR
notes: domain: entire intracellular domain; also called TNF-R p55JC; cytoplasmic domain of the p55 TNF-R
B10: TNF-R1-DD ligand protein encoded by clone 20DD (ligand, not shown: large carriers)
chain: EKPLHALLHGRGVCLNEKSYREQVKIERDSREHEEPTTSEMAEETYSPKIFRPKHTRISELKAEAVKKDRRKKLTQSKFVGGAENTAHPRIISEPEMRQESEQGPCRRHMEASLQELKASPRMVPRAVYLPNCDRKGFYKRKQCKPSRGRKRGICWCVDKYGMKLPGMEYVDGDFQCHTFDSSNVE
B11: Drosophila transcription factor bicoid (other, UniProt P09081-2 2-160, looked up)
chain: AQPPPDQNFYHHPLPHTHTHPHPHSHPHPHSHPHPHHQHPQLQLPPQFRNPFDLLFDERTGAINYNYIRPYLPNQMPKPEELPDSLVMRRPRRTRTTFTSSQIAELEQHFLQGRYLTAPRLADLSAKLALGTAQVKIWFKNRRRRHKIQSDQHKDQSYE

What was measured:
[1] = target: T1, TNF-R1-DD ligand protein encoded by clone 1TU (Homo sapiens (Human), UniProt Q8TEL6 488-797); experiment: yeast interaction trap, panel of baits
T1 construct: partial clone
T1 sequence: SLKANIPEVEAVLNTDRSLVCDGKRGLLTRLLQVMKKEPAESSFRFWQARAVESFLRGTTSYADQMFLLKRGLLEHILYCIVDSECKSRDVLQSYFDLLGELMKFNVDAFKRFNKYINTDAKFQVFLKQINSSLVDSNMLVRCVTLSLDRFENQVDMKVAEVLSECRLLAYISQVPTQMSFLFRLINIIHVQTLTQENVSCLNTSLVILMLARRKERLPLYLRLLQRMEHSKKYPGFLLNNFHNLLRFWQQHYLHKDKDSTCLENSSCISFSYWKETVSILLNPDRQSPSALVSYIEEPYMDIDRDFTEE
Source text: (§1) The ability of these clones to bind the TNF-R death domain was compared to their binding to the intracellular domain of the second TNF-R (TNF-R p75IC), the entire intracellular domain of TNF-R (TNF-R p55IC), the death domain of the fas antigen (which shares 28% identity with TNF-R-DD) (FasDD), the Drosophila transcription factor bicoid, and a region of the IL-1 receptor known to be critical for signalling (IL-1R₄₇₇₋₅₂₇).

[2] = target: T2, TNF-R1-DD ligand protein encoded by clone 27TU (Homo sapiens (Human), UniProt Q8WXG6 1002-1647); experiment: yeast interaction trap, panel of baits
T2 construct: partial clone
Source text: as §1

[3] = target: T3, TNF-R1-DD ligand protein encoded by clone 2DD (Homo sapiens (Human), UniProt Q8WXG6 1217-1647); experiment: yeast interaction trap, panel of baits
T3 construct: partial clone of a longer protein
Source text: (§2) A yeast genetic selection method, the “interaction trap” [Gyuris et al, Cell 75:791-803, 1993, which is incorporated herein by reference], was used to screen WI38 cell cDNA libraries (preparation, see below) for proteins that interact with the death domain of the P55 type 1 TNF receptor (TNF-R1-DD). A polynucleotide encoding amino acids 326 to 413 of the P55 type TNF receptor, TNF-R1-DD, was obtained via the polymerase chain reaction (PCR) using a grafting method. This TNF-R1-DD DNA was then cloned into pEG202 by BamHI and SalI sites, generating the bait plasmid, pEG202-TNF-R1-DD. This plasmid contains the HIS3 selectable marker, and expression of the bait, the LexA-TNF-R1-DD fusion protein, is from the strong constitutive ADH1 promoter. To create the reporter strain carrying the bait protein, yeast strain EGY48, containing the reporter sequence LexAop-Leu2 in place of the chromosomal LEU2, was transformed with pEG202-TNF-R1-DD and pSH18-34 (Ura+), which carries another reporter sequence, LexAop-lacZ. For screening cDNAs encoding proteins that interact with TNF-R1-DD, the expression vector pJG4-5 (TRP1), containing the WI38 cell cDNA library (see below for the cDNA library construction), was transformed into the above strain (EGY48/pEG202-TNF-R1-DD/pSH18-34) according to the method described by Gietz et al., Nucleic Acids Res., 20:1425 (1992).
(§3) The clones “2DD,” “3DD” and “20DD” were chosen for further analysis. Library vector pJG4-5 containing these clones sequences were rescued from yeast by transforming the total yeast DNAs into the E. coli strain KC8 and selecting for growth on Trp-ampicillin plates.

[4] = target: T4, TNF-R1-DD ligand protein encoded by clone 3DD (Homo sapiens (Human), UniProt Q9H3U1 807-944); experiment: yeast interaction trap, panel of baits
T4 construct: partial clone
T4 sequence: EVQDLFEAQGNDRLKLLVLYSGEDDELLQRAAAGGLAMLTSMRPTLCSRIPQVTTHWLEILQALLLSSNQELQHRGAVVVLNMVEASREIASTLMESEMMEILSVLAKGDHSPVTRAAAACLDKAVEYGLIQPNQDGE
Source text: as §2, §3

[5] = target: T1, TNF-R1-DD ligand protein encoded by …; experiment: yeast interaction trap, wild type against death domain mutants
[6] = target: T5, protein encoded by clone 15TU (Homo sapiens (Human), UniProt Q8WXG6 1329-1647); experiment: as above
T5 construct: The limits 289-607 are printed as approximate

[7] = target: T1, TNF-R1-DD ligand protein encoded by …; experiment: yeast interaction trap, death domain mutants
Experimental: (§4) The ability of each clone to interact with four single-site mutations in the TNF-R death domain (each known to abolish signalling) was measured.

[8] = target: T5, protein encoded by clone 15TU; experiment: yeast interaction trap, death domain mutants
Experimental: as §4

[9] = target: T2, TNF-R1-DD ligand protein encoded by …; experiment: yeast interaction trap, death domain mutants
Experimental: as §4

[10] = target: MBP protein (UniProt P0AEX9 27-392 = MBP); experiment: pull-down on glutathione beads, Western blot with anti-MBP antibody
Experimental: The reaction ws performed at 4° C. for 2 hours and centrifuged to remove unbound fraction (Unbound). The beads were then washed with 500 μl binding buffer four times and resuspended into SDS-sample buffer (Bound).

[11] = target: T5, protein encoded by clone 15TU; experiment: yeast interaction trap, panel of baits
Source text: as §1

[12] = target: B2; experiment: yeast interaction trap, panel of baits
Source text: as §2, §3

T2 sequence (Q8WXG6 other isoform, or with tags, fused parts or gaps): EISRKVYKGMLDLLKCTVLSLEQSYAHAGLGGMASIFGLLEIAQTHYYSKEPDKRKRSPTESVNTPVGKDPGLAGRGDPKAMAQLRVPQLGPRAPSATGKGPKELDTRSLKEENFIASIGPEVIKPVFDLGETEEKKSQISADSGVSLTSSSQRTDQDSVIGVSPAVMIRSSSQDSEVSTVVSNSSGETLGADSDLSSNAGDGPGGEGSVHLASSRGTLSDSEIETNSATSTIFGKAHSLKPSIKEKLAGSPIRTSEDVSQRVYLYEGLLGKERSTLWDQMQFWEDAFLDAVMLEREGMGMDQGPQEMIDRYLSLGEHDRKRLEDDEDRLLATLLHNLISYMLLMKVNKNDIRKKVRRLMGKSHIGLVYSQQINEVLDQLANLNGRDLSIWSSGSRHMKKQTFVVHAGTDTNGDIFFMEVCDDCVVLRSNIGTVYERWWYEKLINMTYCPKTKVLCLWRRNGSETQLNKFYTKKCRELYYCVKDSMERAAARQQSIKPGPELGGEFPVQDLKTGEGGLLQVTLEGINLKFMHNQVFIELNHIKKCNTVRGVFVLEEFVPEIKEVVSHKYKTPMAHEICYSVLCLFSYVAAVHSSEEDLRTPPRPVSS
T5 sequence (Q8WXG6 1329-1647): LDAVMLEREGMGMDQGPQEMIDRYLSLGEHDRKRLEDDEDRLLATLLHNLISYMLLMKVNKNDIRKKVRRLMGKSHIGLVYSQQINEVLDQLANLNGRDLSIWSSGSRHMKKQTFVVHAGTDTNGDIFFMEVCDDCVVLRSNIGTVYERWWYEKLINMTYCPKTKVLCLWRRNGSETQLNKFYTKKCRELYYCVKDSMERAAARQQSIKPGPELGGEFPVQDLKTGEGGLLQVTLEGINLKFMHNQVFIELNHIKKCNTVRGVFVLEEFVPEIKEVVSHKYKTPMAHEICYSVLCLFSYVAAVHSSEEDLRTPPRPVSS
T3 sequence (Q8WXG6 other isoform, or with tags, fused parts or gaps): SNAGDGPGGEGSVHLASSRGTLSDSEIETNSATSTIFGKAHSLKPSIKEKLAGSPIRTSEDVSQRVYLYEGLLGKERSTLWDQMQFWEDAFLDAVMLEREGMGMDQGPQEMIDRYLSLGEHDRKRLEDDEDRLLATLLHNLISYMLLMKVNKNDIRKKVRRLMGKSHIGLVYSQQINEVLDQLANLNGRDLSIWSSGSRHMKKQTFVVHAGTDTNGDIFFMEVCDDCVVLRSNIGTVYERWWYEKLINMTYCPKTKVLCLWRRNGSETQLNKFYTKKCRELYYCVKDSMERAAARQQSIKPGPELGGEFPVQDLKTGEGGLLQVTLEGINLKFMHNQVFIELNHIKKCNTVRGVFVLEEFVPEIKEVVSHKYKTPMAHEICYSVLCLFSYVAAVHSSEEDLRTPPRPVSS

Binder | binding result [2] | binding result [7] | binding result [8] | binding result [9] | further results
B1 | no binding |  |  |  | binding result [1]: no binding
B2 | binds |  |  |  | binding result [3]: binds; binding result [4]: binds; binding result [5]: binds; binding result [6]: binds
B3 |  | binds | binds | binds | 
B4 |  | binds | binds | binds | 
B5 |  |  |  |  | binding result [10]: no binding (tested: 3 µg)
B6 |  | binds | binds | binds | 
B7 |  | binds | binds | binds | 
B8 | no binding |  |  |  | binding result [1]: no binding; binding result [11]: no binding
B9 | binds |  |  |  | binding result [1]: binds; binding result [11]: binds
B10 |  |  |  |  | binding result [12]: binds
B11 | no binding |  |  |  | binding result [11]: no binding
